Experimental findings from US20100196361A1 (published 2010) are described below.

This experiment deals with T1, Tie1-Fc immobilized on a CM5 chip (species not stated).
T1 construct: also called immobilized Tie1-Fc
Kind of experiment: SPR, Tie1-Fc immobilized to the CM5 sensor chip, bivalent anti-Tie1 as analyte. On the procedure: Affinity analysis of the Fab and IgGs was performed using surface plasmon resonance using a BIAcore 3000 instrument. For this analysis both dimeric (Tie1-Fc fusion protein) and monomeric (Tie1-HIS) versions of the extracellular domain of the Tie1 were used. The sensor chips used in these experiments were CM5 (dextran-coated) which allow immobilization of proteins to the chip via standard amine coupling chemistries. The concentration of flowed antibody was determined using a surface plasmon resonance based method. Using a high-density protein A sensor chip, under mass transport limited conditions, the response signal is dependent only on the concentration of the antibody in the sample under test. This approach allows a precise determination of the antibody concentration, a parameter important for accurate determination of the KD.
Background: In SPR one partner is held on a chip, and binding of the other changes the refractive index at the surface.

B1: DX-2220 (full length IgG1, germlined human anti-Tie1 antibody E3b) (antibody, V domains shown)
VH: EVQLLESGGGLVQPGGSLRLSCAASGFTFSMYGMVWVRQAPGKGLEWVSVISPSGGNTGYADSVKGRFTISRDNSKNTLYLQMNSLRAEDTAVYYCARAPRGYSYGYYYWGQGTLVTVSS
VL: DIQMTQSPSSLSASVGDRVTITCRASQGIGHYLAWYQQKPGKVPKLLIYTASTLQSGVPSRFSGSGSGTDFTLTISSLQPEDVATYYCQQFNSYPHTFGQGTRLEIKR
notes: Heavy and light chain frameworks germlined; also called E3b-IgG1; germlined E3b IgG1
As for B1, the Kd was found to be 0.2 nM and the “fold increase in affinity (against the anti-Tie1 Fab)” value is over 10 fold.
